Assays:
[1] = molecular target: T1, Human PD-L1 expressed on cells (human, UniProt Q9NZQ7 19-290); assay: cell-based or functional assay
[2] = molecular target: T1, Human PD-L1 expressed on cells; assay: cell-based or functional assay; remark: listed apart in the source

T1 sequence (Q9NZQ7 19-290 limits assumed): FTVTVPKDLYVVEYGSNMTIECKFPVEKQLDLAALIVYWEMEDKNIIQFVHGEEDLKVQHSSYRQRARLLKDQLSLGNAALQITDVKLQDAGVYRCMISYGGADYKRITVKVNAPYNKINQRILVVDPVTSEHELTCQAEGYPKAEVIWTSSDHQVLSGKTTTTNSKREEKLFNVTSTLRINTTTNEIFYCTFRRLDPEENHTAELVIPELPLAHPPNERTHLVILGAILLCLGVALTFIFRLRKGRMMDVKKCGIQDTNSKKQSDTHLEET

Row | Binder | SEB EC50 [1] [nM] | SEB assay EC50 [2] [nM]
1 | FS17-33-548AA/MSL109 (bispecific antibody, human IgG1, kappa, L234A L235A) heavy: EEQVLESGGGLVKPGGSLRLSCAASGFTFSPYSVFWVRQAPGKGLEWVSSINSDSTYKYYADSVKGRFTISRDNAENSIFLQMNSLRAEDTAVYYCARDRSYYAFSSGSLSDYYYGLDVWGQGTTVIVSSASTKGPSVFPLAPSSKSTSGGTAALGCLVKDYFPEPVTVSWNSGALTSGVHTFPAVLQSSGLYSLSSVVTVPSSSLGTQTYICNVNHKPSNTKVDKKVEPKSCDKTHTCPPCPAPEAAGGPSVFLFPPKPKDTLMISRTPEVTCVVVDVSHEDPEVKFNWYVDGVEVHNAKTKPREEQYNSTYRVVSVLTVLHQDWLNGKEYKCKVSNKALPAPIEKTISKAKGQPREPQVYTLPPSRDEEGYWVSLTCLVKGFYPSDIAVEWESNGEPQYWAKTTPPVLDSDGSFFLYSKLTVSNWRWQLGDVFSCSVMHEALHNHYTQKSLSLSPGK light: DIVMTQSPLSLSVTPGEPASISCRSSQSLLHTNGYNYLDWYVQKPGQSPQLLIYLASNRASGVPDRFSGSGSGTDFTLKISRVETEDVGVYYCMQALQIPRTFGQGTKVEIKRTVAAPSVFIFPPSDEQLKSGTASVVCLLNNFYPREAKVQWKVDNALQSGNSQESVTEQDSKDSTYSLSSTLTLSKADYEKHKVYACEVTHQGLSSPVTKSFNRGEC | 3.21 | 
2 | Fcab FS17-33-116 (designed binder) TCPPCPAPELLGGPSVFLFPPKPKDTLMISRTPEVTCVVVDVSHEDPEVKFNWYVDGVEVHNAKTKPREEQYNSTYRVVSVLTVLHQDWLNGKEYKCKVSNKALPAPIEKTISKAKGQPREPQVYTLPPSRDESGYWVSLTCLVKGFYPSDIVVEWESNGEPQYWAKTTPPVLDSDGSFFLYSKLTVSNWRWQMDDFSCSVMHEALHNHYTQKSLSLSPGK |  | 0.0753
